Assay results published in US20230365705A1 (DYNAMICURE BIOTECHNOLOGY, published 2023).

T1: Human CD93 recombinant protein (Sino Biological Inc, Catalog #12589-H08H) (human, UniProt Q9NPY3 22-580)
T1 construct: Biotinylated (EZ-LINK NHS-PEG4 biotin) in the BLI assays; also called hCD93; His-tagged human CD93
T1 sequence (looked up): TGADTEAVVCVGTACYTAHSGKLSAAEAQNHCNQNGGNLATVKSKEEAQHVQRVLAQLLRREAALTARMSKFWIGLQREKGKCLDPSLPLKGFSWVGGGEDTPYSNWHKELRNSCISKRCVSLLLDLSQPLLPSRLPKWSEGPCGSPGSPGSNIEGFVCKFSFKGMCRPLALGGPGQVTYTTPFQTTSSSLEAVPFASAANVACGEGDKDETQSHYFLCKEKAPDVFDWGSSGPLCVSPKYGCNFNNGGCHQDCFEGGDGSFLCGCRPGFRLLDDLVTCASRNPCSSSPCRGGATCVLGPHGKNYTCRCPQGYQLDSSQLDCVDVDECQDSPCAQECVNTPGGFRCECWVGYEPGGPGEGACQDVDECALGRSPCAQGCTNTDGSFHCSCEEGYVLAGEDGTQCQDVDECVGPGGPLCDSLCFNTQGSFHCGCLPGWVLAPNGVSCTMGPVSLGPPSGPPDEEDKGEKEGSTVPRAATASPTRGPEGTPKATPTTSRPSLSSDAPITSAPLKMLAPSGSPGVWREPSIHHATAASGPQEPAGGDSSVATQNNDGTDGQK

T2: Human CD93 on cells (human CD93 expressing CHO cells; HUVEC, U937 and KG1a cells) (human, UniProt Q9NPY3 22-652)
T2 construct: whole, on cells; also called hCD93 expressing CHO cells; hCD93 CHO cells
T2 sequence (looked up): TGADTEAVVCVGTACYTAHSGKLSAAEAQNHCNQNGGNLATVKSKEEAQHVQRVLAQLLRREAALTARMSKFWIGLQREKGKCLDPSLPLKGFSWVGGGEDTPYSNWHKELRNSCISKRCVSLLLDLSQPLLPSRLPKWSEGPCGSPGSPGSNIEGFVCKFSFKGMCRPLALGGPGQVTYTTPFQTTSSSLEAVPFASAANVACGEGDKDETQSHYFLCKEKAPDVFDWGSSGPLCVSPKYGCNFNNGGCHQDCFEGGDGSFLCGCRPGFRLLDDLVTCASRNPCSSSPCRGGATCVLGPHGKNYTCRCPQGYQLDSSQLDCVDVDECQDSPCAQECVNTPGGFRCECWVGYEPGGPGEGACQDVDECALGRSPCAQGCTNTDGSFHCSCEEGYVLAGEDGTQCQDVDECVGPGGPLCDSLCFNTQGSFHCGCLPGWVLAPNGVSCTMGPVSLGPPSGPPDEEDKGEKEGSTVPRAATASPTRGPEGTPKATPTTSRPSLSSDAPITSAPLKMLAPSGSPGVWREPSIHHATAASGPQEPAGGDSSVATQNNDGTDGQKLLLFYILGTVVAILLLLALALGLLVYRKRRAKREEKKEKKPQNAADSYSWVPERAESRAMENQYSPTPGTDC


Assays:
[1] = biological target: T1, Human CD93 recombinant protein (Sino …); assay: summary table, column ELISA (hCD93); 4 weeks at 40 C
Method: (§1) His-tagged human CD93 was coated onto a 96 well plate at 1 μg/mL in 1×PBS overnight at 4° C. The plate was washed with ELISA wash buffer (Boston BioProduct, Inc.) and the wells were blocked with ELISA blocking buffer for 1 hour at 37° C. […] The plate was washed with ELISA wash Buffer. HRP-conjugated anti-human Fc antibody was incubated for 1 hour at 37° C. The plate was washed with ELISA wash Buffer. HRP substrate was added for indirect detection of the antibodies binding to CD93.
as §1

[2] = biological target: T2, Human CD93 on cells (human CD93 …); assay: flow cytometry titration, KG1a cells; antibody stored 2 weeks at 40 C
Method: (§2) KG1a cells were detached by incubation with TrypLE reagents (Thermo Fisher), which preserves the integrity of CD93 on the cell surface. Then the cells were incubated with serial diluted anti-CD93 antibodies for 30 minutes at 4° C. After washing by FACS buffer, the cells were incubated with Alexa Fluor 647 conjugated anti-human IgG (Jackson ImmunoResearch) for 30 minutes in 4° C. After washing by FACS buffer twice, the samples were acquired in NovoCyte Flow Cytometer and analyzed by NovoExpress software.

[3] = biological target: T1, Human CD93 recombinant protein (Sino …); assay: summary table, column ELISA (hCD93)
[4] = biological target: T2, Human CD93 on cells (human CD93 …); assay: summary table, column FACS (KG1a cells)
Method: as §2, §2

[5] = biological target: T2, Human CD93 on cells (human CD93 …); assay: summary table, column FACS (CHO-hCD93 cells)
[6] = biological target: T1, Human CD93 recombinant protein (Sino …); assay: summary table, column Octet (hCD93)
[7] = biological target: T1, Human CD93 recombinant protein (Sino …); assay: summary table, column Octet (hCD93); 4 weeks at 40 C
Method: (§3) The binding affinity of anti-CD93 antibodies was determined with bio-layer interferometry using Octet QKe (Fortebio). […] Human CD93 recombinant protein (Sino Biological Inc, Catalog #12589-H08H) was biotinylated using EZ-LINK NHS-PEG4 biotin (Thermo Fisher Scientific). Streptavidin biosensors (Fortebio) were used to load biotinylated CD93 protein (300 seconds in 5 μg/ml). Baseline was stabilized for 60 seconds in 1×kinetics buffer (Fortebio) before anti-CD93 antibodies, at a serial dilution, were allowed to associate for 300 seconds with captured protein. Then the sensors were dissociated in 1× kinetics buffer for 600 seconds. […] (FIG. 41).
as §3, with “1× kinetics” for “1×kinetics”, “42).” for “41).”

| EC50 [1] [nM] | EC50 [2] [nM] | EC50 [3] [nM] | EC50 [4] [nM] | EC50 [5] [nM] | Kd [6] [nM] | Kd [7] [nM] | Binder |
| --- | --- | --- | --- | --- | --- | --- | --- |
| 0.051 | 0.113 | 0.033 | 0.131 | 0.388 | 0.416 | 0.112 | h16E4 (humanized 16E4, VH4+VL6) (antibody, V domains shown, Detected with anti-human IgG, so a human Fc) VH: QVQLVQSGAEVKKPGASVKVSCKASGYTFTSYWMHWVRQAPGQGLEWMGEIDPSASYTYYNQKFKGRVTMTRDKSSSTVYMELSSLTSEDSAVYYCARSVYYGNKYFDVWGAGTTVTVSS VL: DIQMTQSPSTLSASVGDRVTITCKASQSVDYAGDSYMNWYQQKPGKAPKLLIYAASNLESGVPSRFSGSGSGTEFTLTISSLQPDDFATYYCQQTNEDPRTFGGGTKLEIK |
| – | – | 0.112 | – | 0.59 | 0.334 | – | 16E4 (hybridoma) (antibody, IgG2a, V domains shown, also called 16E4 mAb; 16E4 mIgG2a) VH: QVQLQQPGAELVKPGASVKLSCKASGYTFTSYWMHWVKQRPGQGLEWIGEIDPSASYTYYNQKFKGKATLTVDKSSSTAYMQLSSLTSEDSAVYYCARSVYYGNKYFDVWGAGTTVTVSS VL: not shown |
| 0.0407 | 0.021 | 0.0427 | 0.024 | – | 0.472 | 0.487 | h7F3 (humanized 7F3, VH3+VL3) (antibody, human IgG1, V domains shown, also called humanized 7F3-hIgG1) VH: QVQLVQSGAEVKKPGASVKVSCKASGYTFTDYEMHWVRQAPGQGLEWMGGIDPETGDTAYNQNFKGRVTMTTDTSTSTAYMELRSLTSDDTAVYYCTNYGNLYYYAMDYWGQGTSVTVSS VL: EIVLTQSPSSLSASVGDRVTITCRASSSVSSSYLHWYQQKPGKAPKLLIYSTSNLAFGVPSRFSGSGSGTSYTFTISSLQPEDIATYYCQQYSGYPLTFGSGTKLEIK |
